One molecule from paper PMC12155429, “PTPA Governs Stress-Responsive Differentiation and Metabolic Homeostasis in Toxoplasma gondii” (Cells, 2025) can be followed below.

The test has as its target T1, pMAL–PP2AA–His (Toxoplasma gondii PP2A A subunit) (Toxoplasma gondii, UniProt S8EX93 1-766).
T1 construct: PP2A A subunit of Toxoplasma gondii (TGME49_315670), amplified from Toxoplasma cDNA; printed length 766 aa, ~130 kDa with the pMAL tag; also called PP2A scaffold (A) subunit; source: E. coli, purified (MBPSep Dextrin Agarose Resin, eluted with 10 mM maltose); not shown: MBP (from the vector pMAL)
T1 sequence (looked up): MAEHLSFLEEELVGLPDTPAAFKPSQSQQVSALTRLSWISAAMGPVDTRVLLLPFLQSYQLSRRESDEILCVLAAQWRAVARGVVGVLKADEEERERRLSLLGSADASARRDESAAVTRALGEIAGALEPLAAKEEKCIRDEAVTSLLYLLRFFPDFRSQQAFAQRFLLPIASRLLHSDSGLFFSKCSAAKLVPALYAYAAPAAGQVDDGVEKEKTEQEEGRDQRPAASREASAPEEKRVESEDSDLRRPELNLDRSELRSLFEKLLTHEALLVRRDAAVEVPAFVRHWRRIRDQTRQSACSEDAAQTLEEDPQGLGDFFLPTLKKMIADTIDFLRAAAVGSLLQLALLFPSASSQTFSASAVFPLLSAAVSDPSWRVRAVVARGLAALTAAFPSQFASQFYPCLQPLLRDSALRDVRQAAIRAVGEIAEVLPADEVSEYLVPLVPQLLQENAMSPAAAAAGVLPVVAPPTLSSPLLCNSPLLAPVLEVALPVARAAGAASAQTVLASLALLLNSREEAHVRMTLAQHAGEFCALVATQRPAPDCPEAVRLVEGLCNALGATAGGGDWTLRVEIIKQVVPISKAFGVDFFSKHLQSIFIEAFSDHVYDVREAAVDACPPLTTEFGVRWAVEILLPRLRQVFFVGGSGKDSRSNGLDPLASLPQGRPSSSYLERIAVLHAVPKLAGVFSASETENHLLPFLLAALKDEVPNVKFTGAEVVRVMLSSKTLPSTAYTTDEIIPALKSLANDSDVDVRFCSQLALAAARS
As to the kind of experiment: pull-down; anti-His or anti-HA magnetic beads washed with TBS, incubated with the tagged protein 5 h at 4 °C, then with the target protein 5 h; washed, eluted, Western blot. Conditions: both partners purified. (In general: In western blotting, separated proteins are transferred to a membrane and probed.)

B1: pMAL–PP2AC–HA (Toxoplasma gondii PP2A C subunit) (enzyme, UniProt A0A125YNB3 1-347, looked up)
chain: MSGATPGAVAALQPASAAPALFTIPADVAPSDLPDHYLGQEELRGIDKQMEKLFKCEKLDEEEVRSLCAVLKDILVQEANVQPVRTPVTVVGDIHGQFHDLLEIFKCAGTCPSVNFLFLGDYVDRGLNSVESVSLVFLLKVRYRHRVTLIRGNHESRQITQVYGFYDECLRKYGNANVWNYFTDVFDYLPLSALIEDQIFCPHAGLSPTIETLDHVRLLERFQEVPHEGPMCDLLWSDPEEQMPGWGMSPRGAGYTFGQDISEKFNHVNGLKLIARAHQLIMEGFQWSQANNVVTIFSAPNYCYRCGNQAAIMKIDEHMNYTFIQFNPSLLQASGADMQKRIPDYFL
notes: PP2A C subunit of Toxoplasma gondii (TGME49_224220), amplified from Toxoplasma cDNA; printed length 347 aa, ~80 kDa with the pMAL tag; also called PP2A catalytic (C) subunit; source: E. coli, purified (MBPSep Dextrin Agarose Resin, eluted with 10 mM maltose); not shown: MBP (from the vector pMAL)
On to B1, for which the binding result was “binds”.
